Assay results as given in patent US20230322953A1 (HARBOUR BIOMED SHANGHAI, published 2023).
One block for each binder: values may come before it.

Assays:
[1] = biological target: T1, human CTLA4 on cells (CHO-K1/hCTLA4; HEK293/hCTLA4; 293F-hCTLA4) (human, UniProt P16410 36-223); assay: FACS, CHO-K1/hCTLA4 cells (Test 2)
T1 construct: whole, on cells

[2] = biological target: T2, human PD-L1 on cells (CHO-K1/hPDL1; MDA-MB-231) (human, UniProt Q9NZQ7 19-290); assay: FACS, CHO-K1/hPDL1 cells (Experiment 2)
T2 construct: whole, on cells
T2 sequence (Q9NZQ7 19-290): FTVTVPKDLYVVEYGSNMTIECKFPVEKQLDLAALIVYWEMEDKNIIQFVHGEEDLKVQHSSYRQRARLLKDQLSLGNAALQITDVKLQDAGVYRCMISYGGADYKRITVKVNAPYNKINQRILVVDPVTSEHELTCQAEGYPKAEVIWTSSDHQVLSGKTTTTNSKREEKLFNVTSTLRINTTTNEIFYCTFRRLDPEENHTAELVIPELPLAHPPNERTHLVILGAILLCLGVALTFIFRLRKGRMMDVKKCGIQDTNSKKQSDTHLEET

[3] = biological target: T2, human PD-L1 on cells (CHO-K1/hPDL1; …); assay: competition FACS: biotinylated PD-1 to CHO-K1/hPDL1 cells
[4] = biological target: T1, human CTLA4 on cells (CHO-K1/hCTLA4; …); assay: competition FACS: biotinylated B7-1-Fc to CHO-K1/hCTLA4 cells (Test 2)
[5] = biological target: T2, human PD-L1 on cells (CHO-K1/hPDL1; …); assay: competition FACS: biotinylated PD-1 to CHO-K1/hPDL1 cells (Experiment 2)
[6] = biological target: T3, human PD-L1 (programmed death ligand 1) (human, UniProt Q9NZQ7 19-290); assay: flow cytometry (FACS) on CHO-K1/hPDL1 cells, Experiment 3
T3 construct: whole, on cells; also called hPDL1; CD274
T3 sequence (Q9NZQ7 19-290): as above

[7] = biological target: T3, human PD-L1 (programmed death ligand 1); assay: flow cytometry (FACS) on CHO-K1/hPDL1 cells, Experiment 1
cynomolgus monkey 4-1BB = biological target: T4, cynomolgus monkey 4-1BB (cynomolgus monkey); assay: flow cytometry (FACS) on CHO-K1/cyno 4-1BB cells, Experiment 1
T4 construct: whole, on cells; also called cyno 4-1BB

[8] = biological target: T5, human CTLA4 on CHO-K1/hCTLA4 cells (human, UniProt P16410 36-223); assay: flow cytometry on CHO-K1/hCTLA4 cells, Experiment 1
T5 construct: whole, on cells; CHO-K1 cell line highly expressing human CTLA4; also called human CTLA4 cell
T5 sequence (P16410 36-223): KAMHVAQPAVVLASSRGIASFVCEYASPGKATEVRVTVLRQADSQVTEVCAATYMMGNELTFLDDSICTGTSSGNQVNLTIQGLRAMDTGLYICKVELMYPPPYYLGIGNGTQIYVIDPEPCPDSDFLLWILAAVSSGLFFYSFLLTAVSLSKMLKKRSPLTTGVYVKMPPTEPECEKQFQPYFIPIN

human BCMA [9] = biological target: T6, human BCMA (human, UniProt Q02223 1-184); assay: FACS on NCI-H929 cells
T6 construct: whole, on cells; also called hBCMA; TNFRSF17
T6 sequence (looked up): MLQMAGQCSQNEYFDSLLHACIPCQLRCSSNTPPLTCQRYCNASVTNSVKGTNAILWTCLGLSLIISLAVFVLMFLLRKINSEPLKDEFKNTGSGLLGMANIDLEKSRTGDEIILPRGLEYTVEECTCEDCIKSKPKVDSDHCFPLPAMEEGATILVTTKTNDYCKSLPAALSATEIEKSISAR

cynomolgus monkey BCMA = biological target: T7, cynomolgus monkey BCMA (cynomolgus monkey, UniProt A0A2K5UD97 1-183); assay: FACS on HEK293T/cyno BCMA cells
T7 construct: whole, on cells; also called cyno BCMA
T7 sequence (A0A2K5UD97 entry or part of it): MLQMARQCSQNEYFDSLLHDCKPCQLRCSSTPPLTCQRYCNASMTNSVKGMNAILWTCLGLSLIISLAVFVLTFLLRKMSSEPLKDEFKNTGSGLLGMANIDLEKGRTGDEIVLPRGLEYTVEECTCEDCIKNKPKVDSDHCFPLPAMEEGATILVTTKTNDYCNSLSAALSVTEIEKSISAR

human BCMA [10] = biological target: T6, human BCMA; assay: FACS on HEK293T/hBCMA cells, Experiment 1

T1 sequence (P16410 36-223): as the sequence (P16410 36-223) above

Maximum MFI [1]: 468 MFI | EC50 [2]: 1.37 nM | Maximum MFI [2]: 11100 MFI | fold poorer IC50 than the parent monoclonal antibody [3]: 4 to 5 fold | IC50 [4]: 96.6 nM | Maximum inhibition rate (%) [4]: 61.3% | IC50 [5]: 1.23 nM | Maximum inhibition rate (%) [5]: 80.2%
B1: PR001610 (bispecific antibody, human IgG1, kappa)
light: DIQMTQSPSTLSASVGDRVTVTCRASQSIYIWLAWYQQKPGKAPNLLIYKASSLETGVPSRFSGSGSGTEFTLTISSLQPDDFATYYCQQYYGSSRTFGQGTKVEIKRTVAAPSVFIFPPSDEQLKSGTASVVCLLNNFYPREAKVQWKVDNALQSGNSQESVTEQDSKDSTYSLSSTLTLSKADYEKHKVYACEVTHQGLSSPVTKSFNRGEC
heavy: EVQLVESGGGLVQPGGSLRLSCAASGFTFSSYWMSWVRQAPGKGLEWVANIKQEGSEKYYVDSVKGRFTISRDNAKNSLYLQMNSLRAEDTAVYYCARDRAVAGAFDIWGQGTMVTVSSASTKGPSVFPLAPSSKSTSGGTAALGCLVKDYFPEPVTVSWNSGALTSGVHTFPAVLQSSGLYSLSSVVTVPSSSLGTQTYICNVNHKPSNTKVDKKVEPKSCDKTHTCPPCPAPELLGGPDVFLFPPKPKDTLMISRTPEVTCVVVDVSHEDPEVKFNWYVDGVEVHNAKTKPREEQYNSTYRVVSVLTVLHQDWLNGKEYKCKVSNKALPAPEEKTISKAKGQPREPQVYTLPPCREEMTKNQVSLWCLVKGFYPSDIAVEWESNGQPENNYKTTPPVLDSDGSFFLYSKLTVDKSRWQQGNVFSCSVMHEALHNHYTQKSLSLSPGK
chain: EVQLVESGGGLIQPGGSLRLSCAVSGFTVSKNYMSWVRQAPGKGLEWVSVVYSGGSKTYADSVKGRFTISRDNSKNTLYLQMNSLRAEDTAVYYCARAVPHSPSSFDIWGQGTMVTVSSEPKSSDKTHTCPPCPAPELLGGPDVFLFPPKPKDTLMISRTPEVTCVVVDVSHEDPEVKFNWYVDGVEVHNAKTKPREEQYNSTYRVVSVLTVLHQDWLNGKEYKCKVSNKALPAPEEKTISKAKGQPREPQVCTLPPSREEMTKNQVSLSCAVKGFYPSDIAVEWESNGQPENNYKTTPPVLDSDGSFFLVSKLTVDKSRWQQGNVFSCSVMHEALHNHYTQKSLSLSPGK
notes: PD-L1×CTLA4, structure 11, knob/hole, DE

EC50 (cynomolgus monkey 4-1BB): 1.32 nM | Maximum MFI (cynomolgus monkey 4-1BB): 5360 MFI
B3: PR003550, PD-L1×4-1BB bispecific antibody molecule of IgG-VH tetravalent symmetric structure (bispecific antibody)
light: DIQMTQSPSTLSASVGDRVTVTCRASQSIYIWLAWYQQKPGKAPNLLIYKASSLETGVPSRFSGSGSGTEFTLTISSLQPDDFATYYCQQYYGSSRTFGQGTKVEIKRTVAAPSVFIFPPSDEQLKSGTASVVCLLNNFYPREAKVQWKVDNALQSGNSQESVTEQDSKDSTYSLSSTLTLSKADYEKHKVYACEVTHQGLSSPVTKSFNRGEC
heavy: EVQLVESGGGLVQPGGSLRLSCAASGFTFSSYWMSWVRQAPGKGLEWVANIKQEGSEKYYVDSVKGRFTISRDNAKNSLYLQMNSLRAEDTAVYYCARDRAVAGAFDIWGQGTMVTVSSASTKGPSVFPLAPSSKSTSGGTAALGCLVKDYFPEPVTVSWNSGALTSGVHTFPAVLQSSGLYSLSSVVTVPSSSLGTQTYICNVNHKPSNTKVDKKVEPKSCDKTHTCPPCPAPEAAGGPSVFLFPPKPKDTLMISRTPEVTCVVVDVSHEDPEVKFNWYVDGVEVHNAKTKPREEQYNSTYRVVSVLTVLHQDWLNGKEYKCKVSNKALGAPIEKTISKAKGQPREPQVYTLPPSREEMTKNQVSLTCLVKGFYPSDIAVEWESNGQPENNYKTTPPVLDSDGSFFLYSKLTVDKSRWQQGNVFSCSVMHEALHNHYTQKSLSLSPGEPKSSDKTHTPPPPPRTEVQLVESGGGVVQPGGSLRLSCAASGFTFSNYAMTWVRQAPEKGLEWVSSISGSGVSTYYADSVKGRFTISRDNSKNTLYLQMTRLTAEDTAVYFCAKEGSSETDDHYYNVDVWGQGTTVTVSS
notes: Structure 5; IgG PR000265, VH of PR001760 at C-terminus of heavy chain; linker H1_15-RT; human IgG1 (L234A, L235A, P329G)
EC50 [7]: 1.11 nM | Maximum MFI [7]: 2250 MFI

EC50 (human BCMA [9]): 50.2 nM | Maximum MFI (cynomolgus monkey BCMA): 13800 | EC50 (human BCMA [10]): 9.02 nM | Maximum MFI (human BCMA [10]): 17600
B6: PR002929 (bispecific antibody, human IgG1, lambda, L234A L235A)
light: QAVVTQEPSLTVSPGGTVTLTCRSSTGAVTTSNYANWVQQKPGQAPRGLIGGTNKRAPWTPARFSGSLLGDKAALTLLGAQPEDEAEYFCALWYSNLWVFGGGTKLTVLGQPKAAPSVTLFPPSSEELQANKATLVCLISDFYPGAVTVAWKADSSPVKAGVETTTPSKQSNNKYAASSYLSLTPEQWKSHRSYSCQVTHEGSTVEKTVAPTECS
heavy: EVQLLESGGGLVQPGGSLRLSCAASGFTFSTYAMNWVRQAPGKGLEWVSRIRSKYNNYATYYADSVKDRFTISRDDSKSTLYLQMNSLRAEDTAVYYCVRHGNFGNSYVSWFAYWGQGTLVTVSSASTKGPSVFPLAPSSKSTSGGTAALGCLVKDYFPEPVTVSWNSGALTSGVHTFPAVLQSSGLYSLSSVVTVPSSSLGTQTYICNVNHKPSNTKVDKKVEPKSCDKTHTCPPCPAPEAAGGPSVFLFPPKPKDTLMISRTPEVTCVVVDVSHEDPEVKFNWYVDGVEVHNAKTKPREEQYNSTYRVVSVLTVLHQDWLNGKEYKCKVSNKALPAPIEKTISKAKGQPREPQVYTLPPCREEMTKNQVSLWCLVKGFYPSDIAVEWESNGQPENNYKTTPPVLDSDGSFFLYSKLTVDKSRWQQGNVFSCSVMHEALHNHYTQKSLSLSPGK
chain: EVQLVETGGGLIQPGGSLRLSCAASGFTVSDNYMTWVRQAPGKGLEWVSVIFSGGNTYYADSVKGRFTISRDNAKNTLYLQMNSLRAEDTALYYCARRNYDDTRGTDVFDIWGQGTMVTVSSASEPKSSDKTHTCPPCPAPEAAGGPSVFLFPPKPKDTLMISRTPEVTCVVVDVSHEDPEVKFNWYVDGVEVHNAKTKPREEQYNSTYRVVSVLTVLHQDWLNGKEYKCKVSNKALPAPIEKTISKAKGQPREPQVCTLPPSREEMTKNQVSLSCAVKGFYPSDIAVEWESNGQPENNYKTTPPVLDSDGSFFLVSKLTVDKSRWQQGNVFSCSVMHEALHNHYTQKSLSLSPGK

The next lines start with the binder.

B2: PR007163, PD-L1×4-1BB bispecific antibody molecule of Fab-HCAb symmetric structure (bispecific antibody, human IgG1)
light: DIQMTQSPSTLSASVGDRVTVTCRASQSIYIWLAWYQQKPGKAPNLLIYKASSLETGVPSRFSGSGSGTEFTLTISSLQPDDFATYYCQQYYGSSRTFGQGTKVEIKRTVAAPSVFIFPPSDEQLKSGTASVVCLLNNFYPREAKVQWKVDNALQSGNSQESVTEQDSKDSTYSLSSTLTLSKADYEKHKVYACEVTHQGLSSPVTKSFNRGEC
chain: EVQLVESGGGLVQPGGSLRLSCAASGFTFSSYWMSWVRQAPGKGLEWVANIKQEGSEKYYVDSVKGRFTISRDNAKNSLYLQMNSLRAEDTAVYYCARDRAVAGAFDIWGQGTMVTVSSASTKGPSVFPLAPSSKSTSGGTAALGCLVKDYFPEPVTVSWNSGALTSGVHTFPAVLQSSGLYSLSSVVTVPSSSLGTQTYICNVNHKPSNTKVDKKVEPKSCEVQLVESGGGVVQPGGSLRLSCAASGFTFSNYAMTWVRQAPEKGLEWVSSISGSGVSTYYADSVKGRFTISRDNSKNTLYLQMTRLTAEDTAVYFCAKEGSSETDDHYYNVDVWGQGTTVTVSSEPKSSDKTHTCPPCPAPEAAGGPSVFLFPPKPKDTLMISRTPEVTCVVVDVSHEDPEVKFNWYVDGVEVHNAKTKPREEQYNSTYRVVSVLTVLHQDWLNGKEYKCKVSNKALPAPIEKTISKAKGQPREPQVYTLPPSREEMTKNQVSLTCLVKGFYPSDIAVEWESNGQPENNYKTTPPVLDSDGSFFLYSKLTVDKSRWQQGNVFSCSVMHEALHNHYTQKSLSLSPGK
notes: Structure 2 Fab(CH1)-VH-Fc; Fab of PR000265, VH of PR001760; no first linker, human IgG1 hinge (C220S); human IgG1 (L234A, L235A)
EC50 [6]: 2.26 nM | Maximum MFI [6]: 51300 MFI

B4: HER2xCTLA4 bispecific antibody molecule PR000916 (bispecific antibody, human IgG1, kappa)
light: not shown
heavy: not shown
chain: EVQLVESGGGLIQPGGSLRLSCAVSGFTVSKNYMSWVRQAPGKGLEWVSVVYSGGSKTYADSVKGRFTISRDNSKNTLYLQMNSLRAEDTAVYYCARAVPHSPSSFDIWGQGTMVTVSSEPKSSDKTHTCPPCPAPELLGGPSVFLFPPKPKDTLMISRTPEVTCVVVDVSHEDPEVKFNWYVDGVEVHNAKTKPREEQYNSTYRVVSVLTVLHQDWLNGKEYKCKVSNKALPAPIEKTISKAKGQPREPQVCTLPPSREEMTKNQVSLSCAVKGFYPSDIAVEWESNGQPENNYKTTPPVLDSDGSFFLVSKLTVDKSRWQQGNVFSCSVMHEALHNHYTQKSLSLSPGK
notes: Structure 11 Fab-Fc-VH (bivalent asymmetric); PR000210 Fab (normal), one PR000184 VH
EC50 [8]: 4.68 nM | Maximum MFI [8]: 151 MFI

B5: HER2xCTLA4 bispecific antibody molecule PR000917 (bispecific antibody, human IgG1, kappa)
light: not shown
heavy: not shown
chain: EVQLVESGGGLIQPGGSLRLSCAVSGFTVSKNYMSWVRQAPGKGLEWVSVVYSGGSKTYADSVKGRFTISRDNSKNTLYLQMNSLRAEDTAVYYCARAVPHSPSSFDIWGQGTMVTVSSEPKSSDKTHTCPPCPAPELLGGPDVFLFPPKPKDTLMISRTPEVTCVVVDVSHEDPEVKFNWYVDGVEVHNAKTKPREEQYNSTYRVVSVLTVLHQDWLNGKEYKCKVSNKALPAPEEKTISKAKGQPREPQVCTLPPSREEMTKNQVSLSCAVKGFYPSDIAVEWESNGQPENNYKTTPPVLDSDGSFFLVSKLTVDKSRWQQGNVFSCSVMHEALHNHYTQKSLSLSPGK
notes: Structure 11 Fab-Fc-VH; PR000210 Fab (normal), one PR000184 VH; DE: S239D, I332E
EC50 [8]: 9.8 nM | Maximum MFI [8]: 142 MFI

B7: PR007164, PD-L1×4-1BB bispecific antibody molecule of Fab-HCAb symmetric structure (bispecific antibody, human IgG1)
chain 1: EVQLVESGGGLVQPGGSLRLSCAASGFTFSSYWMSWVRQAPGKGLEWVANIKQEGSEKYYVDSVKGRFTISRDNAKNSLYLQMNSLRAEDTAVYYCARDRAVAGAFDIWGQGTMVTVSSASTKGPSVFPLAPSSKSTSGGTAALGCLVKDYFPEPVTVSWNSGALTSGVHTFPAVLQSSGLYSLSSVVTVPSSSLGTQTYICNVNHKPSNTKVDKKVEPKSC
chain 2: not shown
notes: Structure 1 Fab(CL)-VH-Fc; Fab of PR000265, VH of PR001760; no first linker, human IgG1 hinge (C220S); human IgG1 (L234A, L235A)
EC50 [6]: 1.93 nM | Maximum MFI [6]: 51400 MFI
